Target: UV-DDB (DDB1-DDB2 heterodimer);SMUG1 WT (UniProt Q16531+Q92466+Q53HV7)
Assay: single-molecule DNA tightrope
Settings: both Qdot-labeled; 91.1% of co-localized particles stationary and persistent; tetrahydrofuran abasic site every 2 kb; EMSA: 8 nM DNA, 20 mM HEPES pH 7.5, 150 mM NaCl, 2 mM DTT (5 mM for SMUG1), 5% glycerol, 0.5 mg/ml BSA (0.5 mg/l [sic] for SMUG1), +/- 1.5 mM MgCl2, RT 20 min

UV-DDB (DDB1-DDB2 heterodimer);SMUG1 WT, sequence (Q16531 whole entry, chain 1 of 3): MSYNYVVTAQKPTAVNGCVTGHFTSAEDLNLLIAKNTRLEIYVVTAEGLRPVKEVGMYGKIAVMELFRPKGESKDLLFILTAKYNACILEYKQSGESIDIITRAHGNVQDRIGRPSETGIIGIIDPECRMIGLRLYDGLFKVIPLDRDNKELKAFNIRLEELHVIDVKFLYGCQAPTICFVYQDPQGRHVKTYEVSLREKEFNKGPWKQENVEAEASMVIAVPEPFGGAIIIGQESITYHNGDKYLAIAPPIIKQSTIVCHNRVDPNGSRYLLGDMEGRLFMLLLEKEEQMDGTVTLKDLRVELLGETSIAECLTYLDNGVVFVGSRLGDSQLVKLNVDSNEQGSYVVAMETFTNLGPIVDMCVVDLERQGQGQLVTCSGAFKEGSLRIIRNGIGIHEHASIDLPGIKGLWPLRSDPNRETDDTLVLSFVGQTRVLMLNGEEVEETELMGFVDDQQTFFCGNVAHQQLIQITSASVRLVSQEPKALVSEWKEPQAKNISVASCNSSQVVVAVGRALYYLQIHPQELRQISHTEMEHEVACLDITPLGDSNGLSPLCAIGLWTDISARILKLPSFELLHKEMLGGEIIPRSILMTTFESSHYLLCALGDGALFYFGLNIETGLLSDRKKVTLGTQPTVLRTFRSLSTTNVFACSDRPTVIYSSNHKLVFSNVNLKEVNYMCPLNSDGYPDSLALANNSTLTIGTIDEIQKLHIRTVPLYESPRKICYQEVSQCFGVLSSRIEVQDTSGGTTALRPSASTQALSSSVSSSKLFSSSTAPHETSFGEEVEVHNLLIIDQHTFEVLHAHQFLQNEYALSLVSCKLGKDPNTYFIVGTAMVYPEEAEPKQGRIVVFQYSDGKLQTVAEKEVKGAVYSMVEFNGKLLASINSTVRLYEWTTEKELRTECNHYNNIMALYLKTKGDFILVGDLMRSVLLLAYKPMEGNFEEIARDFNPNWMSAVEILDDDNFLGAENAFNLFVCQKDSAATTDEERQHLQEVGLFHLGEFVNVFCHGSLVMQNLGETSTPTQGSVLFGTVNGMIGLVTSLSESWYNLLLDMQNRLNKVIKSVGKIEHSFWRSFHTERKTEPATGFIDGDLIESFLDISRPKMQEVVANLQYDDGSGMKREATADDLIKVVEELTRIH
UV-DDB (DDB1-DDB2 heterodimer);SMUG1 WT, sequence (Q92466 whole entry, chain 2 of 3): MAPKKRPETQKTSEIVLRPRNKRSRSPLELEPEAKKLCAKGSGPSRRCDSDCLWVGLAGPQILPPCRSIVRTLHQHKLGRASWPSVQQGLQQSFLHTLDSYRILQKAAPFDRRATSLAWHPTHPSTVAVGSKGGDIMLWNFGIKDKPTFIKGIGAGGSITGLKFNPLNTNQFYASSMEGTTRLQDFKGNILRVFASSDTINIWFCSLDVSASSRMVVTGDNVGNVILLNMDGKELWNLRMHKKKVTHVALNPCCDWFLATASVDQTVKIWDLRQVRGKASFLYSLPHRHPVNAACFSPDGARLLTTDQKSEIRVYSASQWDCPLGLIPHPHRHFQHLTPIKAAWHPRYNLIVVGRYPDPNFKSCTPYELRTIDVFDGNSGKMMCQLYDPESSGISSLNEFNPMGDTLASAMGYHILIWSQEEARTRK
UV-DDB (DDB1-DDB2 heterodimer);SMUG1 WT, sequence (Q53HV7 whole entry, chain 3 of 3): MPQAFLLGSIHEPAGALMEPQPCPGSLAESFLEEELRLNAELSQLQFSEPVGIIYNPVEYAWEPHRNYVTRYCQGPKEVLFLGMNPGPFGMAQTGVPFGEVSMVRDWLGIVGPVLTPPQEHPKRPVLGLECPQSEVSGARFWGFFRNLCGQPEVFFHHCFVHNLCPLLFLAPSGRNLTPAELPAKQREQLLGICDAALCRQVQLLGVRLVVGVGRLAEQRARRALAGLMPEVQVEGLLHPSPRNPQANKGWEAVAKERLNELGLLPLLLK

## DNA tightrope with one THF site every 2 kb
  binding (% of particles co-localized): 15.6

From paper PMC10250209, “UV-DDB stimulates the activity of SMUG1 during base excision repair of 5-hydroxymethyl-2'-deoxyuridine moieties”
